Test results from patent publication US10500249B2, “Compositions and methods for preventing or treating diseases, conditions, or processes characterized by aberrant fibroblast proliferation and extracellular matrix deposition” (MOERAE MATRIX, INC., priority 2014, dated 2019).

Columns and labels:
Test in all cases: Kinase Profiling Assay
Format in all cases: biochemical
Conditions in all cases: 100 μM
EGFR (h) = target: T1, EGFR (h) (Homo sapiens, UniProt P00533)
T1 construct: purchased Millipore
Procedure, shortened: (§1)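 Each kinase activity was measured in duplicate. Phosphorylation of a positively charged substrate with radiolabeled phosphate from ATP was captured on a negatively charged filter, counted by scintillation and expressed relative to a 100% activity control. MK2 inhibitory peptides were screened for specificity across 266 human kinases.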

DAPK1 (h) = target: T2, DAPK1 (h) (Homo sapiens, UniProt P53355)
T2 construct: purchased Millipore
T2 sequence (P53355 whole entry): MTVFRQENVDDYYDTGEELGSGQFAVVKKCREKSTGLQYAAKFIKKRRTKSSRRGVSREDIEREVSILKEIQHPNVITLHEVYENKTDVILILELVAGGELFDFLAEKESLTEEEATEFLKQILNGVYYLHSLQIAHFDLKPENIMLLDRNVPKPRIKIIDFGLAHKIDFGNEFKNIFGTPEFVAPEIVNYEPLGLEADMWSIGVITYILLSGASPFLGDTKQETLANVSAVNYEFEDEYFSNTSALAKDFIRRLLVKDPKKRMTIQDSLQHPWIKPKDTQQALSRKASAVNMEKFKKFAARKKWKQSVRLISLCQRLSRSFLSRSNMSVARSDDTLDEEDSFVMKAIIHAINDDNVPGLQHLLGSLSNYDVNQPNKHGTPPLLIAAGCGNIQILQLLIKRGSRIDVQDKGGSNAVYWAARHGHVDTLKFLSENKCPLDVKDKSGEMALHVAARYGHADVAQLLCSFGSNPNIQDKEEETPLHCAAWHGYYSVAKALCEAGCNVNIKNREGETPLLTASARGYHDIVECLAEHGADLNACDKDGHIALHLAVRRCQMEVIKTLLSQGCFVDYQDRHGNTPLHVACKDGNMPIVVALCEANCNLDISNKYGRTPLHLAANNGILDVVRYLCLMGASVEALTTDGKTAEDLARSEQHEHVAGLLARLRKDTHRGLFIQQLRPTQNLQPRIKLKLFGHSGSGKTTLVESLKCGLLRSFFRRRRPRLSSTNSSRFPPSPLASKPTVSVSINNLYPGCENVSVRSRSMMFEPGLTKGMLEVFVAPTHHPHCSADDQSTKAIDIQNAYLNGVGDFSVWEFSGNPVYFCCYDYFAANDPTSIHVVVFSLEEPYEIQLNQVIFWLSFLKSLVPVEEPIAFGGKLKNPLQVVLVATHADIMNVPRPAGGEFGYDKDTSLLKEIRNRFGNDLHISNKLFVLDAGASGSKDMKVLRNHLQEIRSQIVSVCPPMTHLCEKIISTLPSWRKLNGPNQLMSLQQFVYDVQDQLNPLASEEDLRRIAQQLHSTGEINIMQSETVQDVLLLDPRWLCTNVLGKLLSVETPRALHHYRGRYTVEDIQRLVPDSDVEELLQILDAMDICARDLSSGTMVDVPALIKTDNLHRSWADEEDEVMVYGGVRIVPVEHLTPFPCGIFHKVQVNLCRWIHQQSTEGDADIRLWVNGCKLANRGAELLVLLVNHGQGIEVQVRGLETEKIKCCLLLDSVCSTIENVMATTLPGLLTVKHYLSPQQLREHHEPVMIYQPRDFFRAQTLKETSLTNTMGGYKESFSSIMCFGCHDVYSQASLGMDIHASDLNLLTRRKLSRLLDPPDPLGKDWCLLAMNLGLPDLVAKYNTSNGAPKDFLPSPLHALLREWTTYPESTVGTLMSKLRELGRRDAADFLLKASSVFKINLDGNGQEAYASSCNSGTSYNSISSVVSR
Procedure, shortened: as §1

MKK6 (h) = target: T3, MKK6 (h) (Homo sapiens, UniProt P52564)
T3 construct: purchased Millipore
T3 sequence (P52564 1-334): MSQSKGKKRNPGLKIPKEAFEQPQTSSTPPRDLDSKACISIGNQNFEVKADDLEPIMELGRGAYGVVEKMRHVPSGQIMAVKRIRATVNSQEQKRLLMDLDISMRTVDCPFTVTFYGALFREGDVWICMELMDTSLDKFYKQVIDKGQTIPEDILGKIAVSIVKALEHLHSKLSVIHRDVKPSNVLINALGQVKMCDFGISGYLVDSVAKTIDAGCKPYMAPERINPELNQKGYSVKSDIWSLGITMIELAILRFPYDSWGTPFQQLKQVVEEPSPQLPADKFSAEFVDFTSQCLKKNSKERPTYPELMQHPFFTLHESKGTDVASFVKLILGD
Procedure, shortened: as §1

CDK6/cyclinD3 (h) = target: T4, CDK6/cyclinD3 (h) (Homo sapiens, UniProt Q00534)
T4 construct: purchased Millipore
T4 sequence (Q00534 whole entry): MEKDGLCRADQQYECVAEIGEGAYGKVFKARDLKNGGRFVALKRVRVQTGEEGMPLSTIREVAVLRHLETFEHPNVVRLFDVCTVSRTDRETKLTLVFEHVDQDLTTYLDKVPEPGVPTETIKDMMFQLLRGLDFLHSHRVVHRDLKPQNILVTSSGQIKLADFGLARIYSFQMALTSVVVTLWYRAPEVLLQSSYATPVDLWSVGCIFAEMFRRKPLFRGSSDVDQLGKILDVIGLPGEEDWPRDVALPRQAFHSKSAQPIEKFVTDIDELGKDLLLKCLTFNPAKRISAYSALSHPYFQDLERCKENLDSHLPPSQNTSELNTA
T4 sequence (P30281 whole entry partner): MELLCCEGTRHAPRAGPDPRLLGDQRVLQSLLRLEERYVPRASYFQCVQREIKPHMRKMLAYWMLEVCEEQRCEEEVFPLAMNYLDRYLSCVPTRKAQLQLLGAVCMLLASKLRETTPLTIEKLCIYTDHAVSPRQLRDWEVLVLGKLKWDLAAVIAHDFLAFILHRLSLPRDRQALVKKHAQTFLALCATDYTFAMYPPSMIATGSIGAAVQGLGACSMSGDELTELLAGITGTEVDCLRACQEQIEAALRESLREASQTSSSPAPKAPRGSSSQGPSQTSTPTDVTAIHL
Procedure, shortened: as §1

TAK1 (h) = target: T5, TAK1 (h) (Homo sapiens, UniProt O43318)
T5 sequence (O43318 with tags, fused parts or gaps limits assumed): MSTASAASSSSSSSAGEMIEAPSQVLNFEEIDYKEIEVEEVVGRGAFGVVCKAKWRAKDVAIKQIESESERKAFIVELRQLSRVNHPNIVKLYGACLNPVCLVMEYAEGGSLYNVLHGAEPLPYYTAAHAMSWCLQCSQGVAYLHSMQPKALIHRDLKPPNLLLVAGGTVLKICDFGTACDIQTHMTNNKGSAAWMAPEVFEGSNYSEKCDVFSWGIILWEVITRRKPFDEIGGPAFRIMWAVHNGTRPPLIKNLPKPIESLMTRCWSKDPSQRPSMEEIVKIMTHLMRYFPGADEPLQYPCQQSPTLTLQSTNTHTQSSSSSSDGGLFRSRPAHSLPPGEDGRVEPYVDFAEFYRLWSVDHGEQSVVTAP
Procedure, shortened: as §1

Lyn (h) = Lyn (h) (Homo sapiens, UniProt P07948)
Procedure, shortened: as §1

CaMKIIγ (h) = target: T6, CaMKIIγ (h) (Homo sapiens, UniProt Q13555)
T6 construct: purchased Millipore
T6 sequence (Q13555 whole entry): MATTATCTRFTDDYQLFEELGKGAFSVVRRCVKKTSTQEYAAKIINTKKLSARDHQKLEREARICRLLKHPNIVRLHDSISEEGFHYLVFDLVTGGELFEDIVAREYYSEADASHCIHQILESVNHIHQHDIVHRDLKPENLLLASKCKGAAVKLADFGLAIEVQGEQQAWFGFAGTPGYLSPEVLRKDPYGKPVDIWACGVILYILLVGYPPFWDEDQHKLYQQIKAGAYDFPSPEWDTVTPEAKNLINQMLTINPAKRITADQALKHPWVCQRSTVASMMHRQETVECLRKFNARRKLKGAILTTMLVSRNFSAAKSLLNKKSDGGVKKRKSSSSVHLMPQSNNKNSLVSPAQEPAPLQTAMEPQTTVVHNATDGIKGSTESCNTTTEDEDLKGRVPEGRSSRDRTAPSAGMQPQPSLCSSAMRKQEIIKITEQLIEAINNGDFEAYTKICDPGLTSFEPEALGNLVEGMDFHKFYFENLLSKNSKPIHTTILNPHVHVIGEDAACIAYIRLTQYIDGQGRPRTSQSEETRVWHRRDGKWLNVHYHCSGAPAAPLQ
Procedure, shortened: as §1

CHK1 (h) = target: T7, CHK1 (h) (Homo sapiens, UniProt O14757)
T7 construct: purchased Millipore
T7 sequence (O14757 1-476): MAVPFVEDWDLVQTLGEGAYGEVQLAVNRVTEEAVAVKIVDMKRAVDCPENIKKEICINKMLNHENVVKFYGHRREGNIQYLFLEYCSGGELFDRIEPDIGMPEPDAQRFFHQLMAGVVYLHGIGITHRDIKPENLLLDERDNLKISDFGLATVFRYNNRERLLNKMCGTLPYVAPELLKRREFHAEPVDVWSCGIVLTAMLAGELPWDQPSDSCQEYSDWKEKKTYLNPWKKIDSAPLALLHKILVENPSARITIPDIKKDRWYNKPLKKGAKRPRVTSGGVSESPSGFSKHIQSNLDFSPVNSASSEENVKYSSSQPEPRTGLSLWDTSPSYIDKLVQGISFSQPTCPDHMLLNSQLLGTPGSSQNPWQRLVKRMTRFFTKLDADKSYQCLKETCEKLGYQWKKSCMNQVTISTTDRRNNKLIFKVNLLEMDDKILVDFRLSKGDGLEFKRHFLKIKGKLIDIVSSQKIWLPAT
Procedure, shortened: as §1

PrKX (h) = target: T8, PrKX (h) (Homo sapiens, UniProt P51817)
T8 sequence (P51817 1-358): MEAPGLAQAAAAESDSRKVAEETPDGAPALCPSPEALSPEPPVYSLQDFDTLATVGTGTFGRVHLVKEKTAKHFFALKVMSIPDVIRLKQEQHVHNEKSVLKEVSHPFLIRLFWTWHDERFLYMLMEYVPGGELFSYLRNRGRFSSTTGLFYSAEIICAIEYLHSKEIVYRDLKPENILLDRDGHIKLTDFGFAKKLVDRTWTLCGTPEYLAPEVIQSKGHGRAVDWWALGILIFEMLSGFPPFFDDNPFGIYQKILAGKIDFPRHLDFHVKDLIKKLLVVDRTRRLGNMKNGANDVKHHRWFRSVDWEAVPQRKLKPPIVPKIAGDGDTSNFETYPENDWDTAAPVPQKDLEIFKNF
Procedure, shortened: as §1

CDK5/p25 (h) = target: T9, CDK5/p25 (h) (Homo sapiens, UniProt Q00535)
T9 construct: purchased Millipore
T9 sequence (Q00535 whole entry): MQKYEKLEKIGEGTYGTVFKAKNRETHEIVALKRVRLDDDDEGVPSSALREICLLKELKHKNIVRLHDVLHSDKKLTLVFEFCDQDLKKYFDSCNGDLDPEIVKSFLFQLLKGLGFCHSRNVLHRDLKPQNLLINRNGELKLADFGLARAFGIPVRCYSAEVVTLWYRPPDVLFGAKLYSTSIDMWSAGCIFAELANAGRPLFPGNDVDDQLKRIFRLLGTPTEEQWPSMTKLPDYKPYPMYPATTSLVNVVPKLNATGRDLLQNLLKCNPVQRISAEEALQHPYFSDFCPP
T9 sequence (Q15078 99-307 partner limits assumed): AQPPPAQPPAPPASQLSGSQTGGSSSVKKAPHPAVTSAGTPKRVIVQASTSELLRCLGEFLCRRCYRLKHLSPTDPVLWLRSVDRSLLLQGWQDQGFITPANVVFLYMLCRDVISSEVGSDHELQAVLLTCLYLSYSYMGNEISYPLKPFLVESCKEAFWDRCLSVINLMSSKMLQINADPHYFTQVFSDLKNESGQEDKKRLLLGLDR
Procedure, shortened: as §1

PKCθ (h) = PKCθ (h) (Homo sapiens, UniProt Q04759)
Procedure, shortened: as §1

EphA4 (h) = EphA4 (h) (Homo sapiens, UniProt P54764)
EphA4 (h), sequence (P54764 20-986): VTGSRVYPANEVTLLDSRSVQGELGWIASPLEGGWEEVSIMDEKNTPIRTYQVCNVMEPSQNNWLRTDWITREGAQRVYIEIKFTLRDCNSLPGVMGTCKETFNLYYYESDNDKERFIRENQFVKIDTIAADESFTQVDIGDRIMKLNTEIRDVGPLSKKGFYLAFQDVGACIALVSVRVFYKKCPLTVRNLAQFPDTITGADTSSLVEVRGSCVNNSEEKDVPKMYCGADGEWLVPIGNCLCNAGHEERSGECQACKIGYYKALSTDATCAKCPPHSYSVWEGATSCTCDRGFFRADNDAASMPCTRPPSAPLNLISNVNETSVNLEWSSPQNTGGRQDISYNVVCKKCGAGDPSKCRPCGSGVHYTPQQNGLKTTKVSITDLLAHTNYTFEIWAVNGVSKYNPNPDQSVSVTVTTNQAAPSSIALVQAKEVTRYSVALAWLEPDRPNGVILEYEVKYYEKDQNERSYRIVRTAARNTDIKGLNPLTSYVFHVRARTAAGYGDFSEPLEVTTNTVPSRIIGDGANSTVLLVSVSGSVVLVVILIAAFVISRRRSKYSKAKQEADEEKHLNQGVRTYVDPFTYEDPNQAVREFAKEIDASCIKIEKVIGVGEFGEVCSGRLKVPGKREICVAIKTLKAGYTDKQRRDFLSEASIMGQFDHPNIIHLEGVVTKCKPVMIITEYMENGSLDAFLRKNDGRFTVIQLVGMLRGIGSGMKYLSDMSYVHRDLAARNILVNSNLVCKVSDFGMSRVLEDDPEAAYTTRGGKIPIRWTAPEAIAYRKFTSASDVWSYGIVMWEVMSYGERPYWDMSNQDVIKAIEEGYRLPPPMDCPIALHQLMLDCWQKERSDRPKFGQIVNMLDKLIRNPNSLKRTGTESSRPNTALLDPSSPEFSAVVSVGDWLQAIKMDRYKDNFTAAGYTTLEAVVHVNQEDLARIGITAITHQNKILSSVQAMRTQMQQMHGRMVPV
Procedure, shortened: as §1

PKBβ (h) = target: T10, PKBβ (h) (Homo sapiens, UniProt P31751)
T10 construct: purchased Millipore
Procedure, shortened: as §1

Pim-2 (h) = target: T11, Pim-2 (h) (Homo sapiens, UniProt Q9P1W9)
T11 construct: purchased Millipore
Procedure, shortened: as §1

CDK3/cyclinE (h) = target: T12, CDK3/cyclinE (h) (Homo sapiens, UniProt Q00526)
T12 construct: purchased Millipore
T12 sequence (Q00526 whole entry): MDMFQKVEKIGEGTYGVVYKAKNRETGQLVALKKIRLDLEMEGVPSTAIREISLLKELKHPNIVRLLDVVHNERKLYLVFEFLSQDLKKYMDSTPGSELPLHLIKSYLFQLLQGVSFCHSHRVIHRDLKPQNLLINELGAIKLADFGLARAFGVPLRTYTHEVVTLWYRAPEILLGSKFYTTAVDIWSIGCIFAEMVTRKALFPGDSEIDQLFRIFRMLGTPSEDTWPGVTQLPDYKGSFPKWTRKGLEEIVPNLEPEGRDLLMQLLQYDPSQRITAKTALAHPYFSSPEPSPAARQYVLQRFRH
T12 sequence (P24864 whole entry partner): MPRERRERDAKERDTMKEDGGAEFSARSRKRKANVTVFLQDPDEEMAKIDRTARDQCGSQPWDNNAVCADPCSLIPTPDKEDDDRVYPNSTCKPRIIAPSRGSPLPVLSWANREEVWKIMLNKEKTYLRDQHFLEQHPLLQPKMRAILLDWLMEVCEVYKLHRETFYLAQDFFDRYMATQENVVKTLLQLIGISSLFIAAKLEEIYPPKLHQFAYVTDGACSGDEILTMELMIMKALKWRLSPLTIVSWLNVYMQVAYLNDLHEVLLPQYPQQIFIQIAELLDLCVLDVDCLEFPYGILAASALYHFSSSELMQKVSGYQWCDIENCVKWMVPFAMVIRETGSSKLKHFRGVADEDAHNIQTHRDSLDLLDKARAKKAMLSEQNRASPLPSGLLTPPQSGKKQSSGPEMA
Procedure, shortened: as §1

MST3 (h) = target: T13, MST3 (h) (Homo sapiens, UniProt Q9Y6E0)
T13 construct: purchased Millipore
Procedure, shortened: as §1

ACK1 (h) = ACK1 (h) (Homo sapiens, UniProt Q07912)
Procedure, shortened: as §1

Row | Sequence | % activity (EGFR (h)) [%] | % activity (DAPK1 (h)) [%] | % activity (MKK6 (h)) [%] | % activity (CDK6/cyclinD3 (h)) [%] | % activity (TAK1 (h)) [%] | % activity (Lyn (h)) [%] | % activity (CaMKIIγ (h)) [%] | % activity (CHK1 (h)) [%] | % activity (PrKX (h)) [%] | % activity (CDK5/p25 (h)) [%] | % activity (PKCθ (h)) [%] | % activity (EphA4 (h)) [%] | % activity (PKBβ (h)) [%] | % activity (Pim-2 (h)) [%] | % activity (CDK3/cyclinE (h)) [%] | % activity (MST3 (h)) [%] | % activity (ACK1 (h)) [%]
1 | FAKLAARLYRKALARQLGVAA [MMI-0300] | 21 | 46 | 48 | 86 | 122 | 69 | 5 | 91 | 61 | 89 | 88 | 88 | 84 | 76 | 94 | 45 | –
2 | HRRIKAWLKKIKALARQLGVAA (Mammalian) [MMI-0500] | −1 | 0 | 18 | 23 | – | 31 | 3 | 65 | 57 | 66 | 62 | 48 | 21 | 46 | 8 | 4 | 64
3 | KAFAKLAARLYRKALARQLGVAA [MMI-0400] | 16 | 36 | 44 | 85 | 177 | 3 | 3 | 87 | 76 | 92 | 76 | 65 | 98 | 92 | 92 | 36 | 95
4 | YARAAARQARAKALNRQLGVA (Mammalian) [MMI-0200] | 83 | – | 98 | 100 | 124 | 98 | 94 | – | – | 97 | 101 | 127 | 250 | 74 | – | 95 | 97
